# According to patent publication US11278600B2, “Human alpha-galactosidase variants” (Codexis, Inc., priority 2014, dated 2022):
# Where a chain is given by its changes, count along the chain named.
# B1: 340 (protein)
# chain: LDNGLARTPTMGWLHWERFMCNLDCQEEPDSCISEKLFMEMAERMVSEGWKDAGYEYLCIDDCWMAPQRDSEGRLQADPQRFPHGIRQLANYVHSIGLKLGIYADVGNKTCAGFPGSFGYYDIDAQTFADWGVDLLKFDGCYCDSLENLADGYKHMSLALNRTGRSIVYSCEWPLYMWPFQKPNYTEIRQYCNHWRNFADIDDSWASIKSILDWTSRNQERIVDVAGPGGWNDPDMLVIGNFGLSWDQQVTQMALWAIMAAPLFMSNDLRHISPQAKALLQDKDVIAINQDPLGKQGYQLRQGDNFEVWERPLSGLAWAVAIINRQEIGGPRSYTIAVASLGKGVACNPGCFITQLLPVKRQLGFYNWSSRLKSHINPTGTVLLQLENTMQMSLKDLL
# modifications: Synthetic Polypeptide sequence of Variant No. 340 of mature Human GLA
# B2: 341 (protein)
# chain: B1 chain with G350A, Q362K
# modifications: Synthetic Polypeptide sequence of Variant No. 341 of mature Human GLA
# B3: 342 (protein)
# chain: B1 chain with Q302K, L316D, A337P, G350A, Q362K, S369T
# modifications: Synthetic Polypeptide sequence of Variant No. 342 of mature Human GLA
# B4: 343 (protein)
# chain: B1 chain with Q302K, G350A, Q362K
# modifications: Synthetic Polypeptide sequence of Variant No. 343 of mature Human GLA
# B5: 344 (protein)
# chain: B1 chain with Q302K, G350A, S369T
# modifications: Synthetic Polypeptide sequence of Variant No. 344 of mature Human GLA
# B6: 345 (protein)
# chain: LDNGLARTPTMGWLHWERFMCNLDCQEEPDSCISEKLFMEMAERMVSEGWKDAGYEYLCIDDCWMAPQRDSEGRLQADPQRFPHGIRQLANYVHSIGLKLGIYADVGNKTCAGFPGSFGYYDIDAQTFADWGVDLLKFDGCYCDSLENLADGYKHMSLALNRTGRSIVYSCEWPLYMWPFQKPNYTEIRQYCNHWRNFADIDDSWASIKSILDWTSRNPERIVDVAGPGGWNDPDMLVIGNFGLSWDQQVTQKALWAIMAAPLFMFNDLRHISPQAKALLQDKEVIAINPDPFGKQGYQLRKGDNFEGWERPLFGLAWAVAIINRQEIGGPRSYTIPVASLGEGVACNPACFITQLLPVKRKLGFYNWTSRLKSHINPTGTVLLQLENTMQMSLKDLL
# modifications: Synthetic Polypeptide sequence of Variant No. 345 of mature Human GLA
# B7: 346 (protein)
# chain: B1 chain with D247N, Q302K
# modifications: Synthetic Polypeptide sequence of Variant No. 346 of mature Human GLA
# B8: 347 (protein)
# chain: B1 chain with R217F, D247N, A337P, G350A, Q362K
# modifications: Synthetic Polypeptide sequence of Variant No. 347 of mature Human GLA
# B9: 348 (protein)
# chain: LDNGLARTPTMGWLHWERFMCNLDCQEEPDSCISEKLFMEMAERMVSEGWKDAGYEYLCIDDCWMAPQRDSEGRLQADPQRFPHGIRQLANYVHSKGLKFGIYADVGNKTCAGFPGSFGYYDIDAQTFADWGVDLLKFDGCYCDSLENLADGYKHMSLALNRTGRSIVYSCEWPLYMWPFQKPNYTEIRQYCNHWRNFADIDDSWASVKSILDWTSFNQEKIVDVAGPGGWNDPDMLVIGNFGLSWNQQVTQMALWAIMAAPLFMSNDLRHISPQAKALLQDKDVIAINQDPLGKQGYQLRQGDNFEVWERPLSGLAWAVAIINRQEIGGPRSYTIAVASLGGGVACNPACFITQLLPVKRKLGLYNWTSRLKSHINPTGTVLLQLENTMQMSLKDLL
# modifications: Synthetic Polypeptide sequence of Variant No. 348 of mature Human GLA
# B10: 349 (protein)
# chain: B9 chain with K221T, N247D, G343K
# modifications: Synthetic Polypeptide sequence of Variant No. 349 of mature Human GLA
# B11: 350 (protein)
# chain: B9 chain with K221T, N247D, I322V, G343K, L365F, I376V
# modifications: Synthetic Polypeptide sequence of Variant No. 350 of mature Human GLA
# Experiment: HTP-analysis of supernatants pretreated with base (MUGal hydrolysis)
# Format: biochemical
# Settings: challenge at pH 8.2; activity of the variant/activity of Rd3BB (SEQ ID NO: 13); yeast culture supernatant
# Outline: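 GLA variants were secreted by transformed INVSc1 yeast grown 66-84 h at 30° C. Supernatants were exposed to neutral-to-basic buffers (pH 7.0-9.7) at 37° C for 1-18 h, then assayed with MUGal in acidic citrate/McIlvaine buffer, with fluorescence read after quenching.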
row,Molecule,Relative Activity of GLA Variants After Challenge at pH 8.2
1,B1,+ (+ = 0.5 to 1.5 relative activity over Rd3BB (SEQ ID NO: 13))
2,B2,+ (+ = 0.5 to 1.5 relative activity over Rd3BB (SEQ ID NO: 13))
3,B3,+++ (+++ = >2.5 relative activity over Rd3BB (SEQ ID NO: 13))
4,B4,+ (+ = 0.5 to 1.5 relative activity over Rd3BB (SEQ ID NO: 13))
5,B5,+ (+ = 0.5 to 1.5 relative activity over Rd3BB (SEQ ID NO: 13))
6,B6,+++ (+++ = >2.5 relative activity over Rd3BB (SEQ ID NO: 13))
7,B7,++ (++ = >1.5 to 2.5 relative activity over Rd3BB (SEQ ID NO: 13))
8,B8,− (− = <0.5 relative activity to Rd3BB (SEQ ID NO: 13))
9,B9,+ (+ = 0.5 to 1.5 relative activity over Rd3BB (SEQ ID NO: 13))
10,B10,++ (++ = >1.5 to 2.5 relative activity over Rd3BB (SEQ ID NO: 13))
11,B11,+++ (+++ = >2.5 relative activity over Rd3BB (SEQ ID NO: 13))

# Experiment: HTP-analysis of yeast culture supernatants, no challenge (MUGal hydrolysis)
# Format: biochemical
# Settings: activity of the variant/activity of Rd3BB (SEQ ID NO: 13), yeast culture supernatant
# Outline: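 GLA variants expressed in yeast INVSc1, secreted into SD-Ura broth over 66-84 h at 30° C; clarified supernatants tested without challenge. Supernatant mixed with McIlvaine buffer pH 4.8 and 2 mM MUGal (citrate/KCl, pH 4.6), 37° C for 30-180 min, carbonate-quenched, fluorescence Ex 355/Em 448 nm.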
row,Molecule,Relative Activity of GLA Variants After No Challenge (NC)
1,B1,+ (+ = 0.5 to 1.5 relative activity over Rd3BB (SEQ ID NO: 13))
2,B2,− (− = <0.5 relative activity to Rd3BB (SEQ ID NO: 13))
3,B3,++ (++ = >1.5 to 2.5 relative activity over Rd3BB (SEQ ID NO: 13))
4,B4,+ (+ = 0.5 to 1.5 relative activity over Rd3BB (SEQ ID NO: 13))
5,B5,+ (+ = 0.5 to 1.5 relative activity over Rd3BB (SEQ ID NO: 13))
6,B6,+ (+ = 0.5 to 1.5 relative activity over Rd3BB (SEQ ID NO: 13))
7,B7,+ (+ = 0.5 to 1.5 relative activity over Rd3BB (SEQ ID NO: 13))
8,B8,− (− = <0.5 relative activity to Rd3BB (SEQ ID NO: 13))
9,B9,+ (+ = 0.5 to 1.5 relative activity over Rd3BB (SEQ ID NO: 13))
10,B10,+ (+ = 0.5 to 1.5 relative activity over Rd3BB (SEQ ID NO: 13))
11,B11,+ (+ = 0.5 to 1.5 relative activity over Rd3BB (SEQ ID NO: 13))

# Experiment: HTP-analysis of supernatants pretreated with bovine serum (MUGal hydrolysis)
# Format: biochemical
# Settings: activity of the variant/activity of Rd3BB (SEQ ID NO: 13), yeast culture supernatant
# Outline: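 Yeast INVSc1 culture supernatants containing secreted GLA variants were mixed with bovine serum (20:80) and held 1 h at 37° C. Serum-treated samples then reacted with MUGal (4 mM stock) in citrate/McIlvaine buffer (pH 4.3/4.8) for 180 min at 37° C., were quenched with sodium carbonate, and read by fluorescence (Ex 355, Em 448 nm).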
row,Molecule,Relative Activity of GLA Variants After Challenge with Serum
1,B1,+ (+ = 0.5 to 1.5 relative activity over Rd3BB (SEQ ID NO: 13))
2,B2,+ (+ = 0.5 to 1.5 relative activity over Rd3BB (SEQ ID NO: 13))
3,B3,+++ (+++ = >2.5 relative activity over Rd3BB (SEQ ID NO: 13))
4,B4,+ (+ = 0.5 to 1.5 relative activity over Rd3BB (SEQ ID NO: 13))
5,B5,++ (++ = >1.5 to 2.5 relative activity over Rd3BB (SEQ ID NO: 13))
6,B6,+ (+ = 0.5 to 1.5 relative activity over Rd3BB (SEQ ID NO: 13))
7,B7,+ (+ = 0.5 to 1.5 relative activity over Rd3BB (SEQ ID NO: 13))
8,B8,− (− = <0.5 relative activity to Rd3BB (SEQ ID NO: 13))
9,B9,+ (+ = 0.5 to 1.5 relative activity over Rd3BB (SEQ ID NO: 13))
10,B10,+ (+ = 0.5 to 1.5 relative activity over Rd3BB (SEQ ID NO: 13))
11,B11,+ (+ = 0.5 to 1.5 relative activity over Rd3BB (SEQ ID NO: 13))

# Experiment: HTP-analysis of supernatants pretreated with acid (MUGal hydrolysis)
# Format: biochemical
# Settings: challenge at pH 4.0; activity of the variant/activity of Rd3BB (SEQ ID NO: 13); yeast culture supernatant
# Outline: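 GLA variants were secreted from INVSc1 yeast grown 66-84 h at 30° C. in SD-Ura with 2% glucose; supernatants were mixed with McIlvaine buffer pH 3.3-4.3 and held at 37° C. for 1-3 h. Residual activity on MUGal at pH 4.8 was then measured by fluorescence.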
row,Molecule,Relative Activity of GLA Variants After Challenge at pH 4.0
1,B1,+ (+ = 0.5 to 1.5 relative activity over Rd3BB (SEQ ID NO: 13))
2,B2,+ (+ = 0.5 to 1.5 relative activity over Rd3BB (SEQ ID NO: 13))
3,B3,+++ (+++ = >2.5 relative activity over Rd3BB (SEQ ID NO: 13))
4,B4,+ (+ = 0.5 to 1.5 relative activity over Rd3BB (SEQ ID NO: 13))
5,B5,+ (+ = 0.5 to 1.5 relative activity over Rd3BB (SEQ ID NO: 13))
6,B6,++ (++ = >1.5 to 2.5 relative activity over Rd3BB (SEQ ID NO: 13))
7,B7,+ (+ = 0.5 to 1.5 relative activity over Rd3BB (SEQ ID NO: 13))
8,B8,− (− = <0.5 relative activity to Rd3BB (SEQ ID NO: 13))
9,B9,+ (+ = 0.5 to 1.5 relative activity over Rd3BB (SEQ ID NO: 13))
10,B10,+ (+ = 0.5 to 1.5 relative activity over Rd3BB (SEQ ID NO: 13))
11,B11,++ (++ = >1.5 to 2.5 relative activity over Rd3BB (SEQ ID NO: 13))
